Measurements: article PMC4280530, “Uniform Orientation of Biotinylated Nanobody as an Affinity Binder for Detection of Bacillus thuringiensis (Bt) Cry1Ac Toxin” (Toxins, 2014)

Target: T1, Cry1F toxin (Bacillus thuringiensis, strain not …, UniProt Q03746)
T1 construct: Cry1F toxin of Bacillus thuringiensis, member of the Cry1 family; Commercial toxin
Experiment: ELISA
Conditions: both partners purified

T1 sequence (Q03746 whole entry): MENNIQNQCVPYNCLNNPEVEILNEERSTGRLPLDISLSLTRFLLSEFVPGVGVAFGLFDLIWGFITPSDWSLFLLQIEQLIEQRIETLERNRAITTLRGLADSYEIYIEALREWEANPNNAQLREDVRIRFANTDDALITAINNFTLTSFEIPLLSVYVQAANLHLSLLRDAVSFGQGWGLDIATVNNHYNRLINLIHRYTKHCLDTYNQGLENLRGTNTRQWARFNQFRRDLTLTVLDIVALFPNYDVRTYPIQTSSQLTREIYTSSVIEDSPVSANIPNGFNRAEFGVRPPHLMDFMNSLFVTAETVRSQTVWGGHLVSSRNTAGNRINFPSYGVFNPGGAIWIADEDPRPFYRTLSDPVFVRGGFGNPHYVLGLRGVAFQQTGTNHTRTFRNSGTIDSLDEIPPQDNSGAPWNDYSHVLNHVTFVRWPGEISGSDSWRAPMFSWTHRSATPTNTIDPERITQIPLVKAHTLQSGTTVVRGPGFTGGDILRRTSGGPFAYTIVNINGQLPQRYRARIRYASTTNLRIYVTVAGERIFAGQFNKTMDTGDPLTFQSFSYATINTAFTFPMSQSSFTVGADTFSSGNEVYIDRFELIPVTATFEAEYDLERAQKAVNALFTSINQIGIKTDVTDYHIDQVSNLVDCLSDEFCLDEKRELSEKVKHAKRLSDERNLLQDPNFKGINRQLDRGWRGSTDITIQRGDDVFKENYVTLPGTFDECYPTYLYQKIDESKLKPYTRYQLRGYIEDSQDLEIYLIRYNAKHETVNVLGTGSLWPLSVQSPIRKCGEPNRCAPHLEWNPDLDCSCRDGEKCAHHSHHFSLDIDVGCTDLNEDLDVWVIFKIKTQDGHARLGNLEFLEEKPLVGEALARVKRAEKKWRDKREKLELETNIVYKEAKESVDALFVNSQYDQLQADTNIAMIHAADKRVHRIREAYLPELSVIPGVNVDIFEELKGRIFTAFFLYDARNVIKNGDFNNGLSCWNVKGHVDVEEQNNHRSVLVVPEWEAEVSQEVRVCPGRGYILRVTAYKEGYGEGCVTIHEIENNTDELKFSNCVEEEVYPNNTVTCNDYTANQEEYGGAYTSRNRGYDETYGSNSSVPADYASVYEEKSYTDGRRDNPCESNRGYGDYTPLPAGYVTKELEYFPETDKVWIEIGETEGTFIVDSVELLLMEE

Row | Binder | binding result
1 | anti-Cry1Ac nanobody Nb61 (VHH, VHH from an immunised dromedary, in pMECS; HA tag is known from the detection with anti-HA tag antibody; also called Cry1Ac Nb61; source: E. coli WK6, periplasm, purified (Ni-NTA / His-Select IMAC); periplasmic extract in PE-ELISA) VHH: QVQLQESGGGSVQAGGSLRLSCEASENTYNSVYMAWFRQAPEKEREGVAVLSTGGGRTYYTDSVKGRFTISRDNAKNMVYLQMNSLKPDDTAMYYCAATYTGDSYGPSLYYLTPGRYEYWGQGTQVTVSS | no binding (tested: 10 μg·mL^−1)
2 | anti-Cry1Ac nanobody Nb44 (VHH, VHH from an immunised dromedary, in pMECS; HA tag is known from the detection with anti-HA tag antibody; also called Cry1Ac Nb44; source: E. coli WK6, periplasm, purified (Ni-NTA / His-Select IMAC); periplasmic extract in PE-ELISA) VHH: QVQLQESGGGSVQAGGSLRLSCATSGLTYSARITWFRQAPEKEREGVATFSTGSGSTGYADSVKGRFTISQDNAKNTLYLQMNNLKPEDTAMYYCAADTSTSWRDIVLVARYKYWGQGTQVTVSS | no binding (tested: 10 μg·mL^−1)
